We go through 2 substances from article PMC6315561.

Experiment [1] addresses Full baseplate complex of phage Phi4.2 (Dit, Tal, RBP1, RBP2) (Lactococcus phage Phi4.2). In words: negative stain electron microscopy; purified baseplate complexes at 0.03 mg/mL on carbon-coated grids, Ca2+ in the protein buffer; baseplate to back-to-back dimer of baseplates.
The target in experiment [2] is ΔRBP1_(Phi4.2) baseplate complex (Dit, Tal, RBP2) (Lactococcus phage Phi4.2). Described as above.

For orientation: stoichiometry N means a count of units in the complex or per binding partner. In experiment [1], “Full baseplate complex of phage Phi4.2 (Dit, Tal, RBP1, RBP2)” registered a stoichiometry N of 2.
“ΔRBP1_(Phi4.2) baseplate complex (Dit, Tal, RBP2)” gave a stoichiometry N in experiment [2] of 2.
